Assay: yeast display, Sf9 membrane polyspecificity reagent, FACS + sequencing; frameworks hold sequencing errors
Summary of the method: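 Using colony PCR, genes from sorted yeast display clones were amplified, then sequenced on MiSeq at 2 × 250 and filtered by CDR length. The clones had been stained with 10% biotinylated, detergent-solubilized Sf9 membrane reagent for 1 hour at 4 °C and sorted by FACS into low and high (top ~1%) gates on anti-HA and streptavidin fluorescence. Polyreactivity labels come from the gate of origin.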

Row | Sequence | polyreactivity (PSR sort gate)
1 | QVQLVETGGGLVQAGGSLRLSCAASGFTFRRYTMGWYRQAPGKERELVAAISGRGGRTYYADSVKGRFTISRDNAKNTVDLQMNSLKPEDTAVYYCAADTPYCQSSKYDYWGQGNQVTVSS | high polyreactivity
2 | QVQLVESGGGLVPAGGSLRLSCAASGSTFVSKAMGWYRQAPGKERELLAAISTSGGSTYNADSVKGRVTISGDNAKNTVYLQMNSLKPEDTAVYYCAKLLAGGFRIWQDYDYWGQGTQVTVSS | low polyreactivity
3 | QVQLVESGGGLVQAGGSLRLRCAASGFTFYRKAMGWYRHAHGKERELVAAITRGGSTTYADSVKGRFTISRDNAKNTVYLQMNSLKPEDTAVYYCAVPQYLYLQAGHGYRYYYWGQGSQVTVSS | high polyreactivity
4 | QVQLVESGGGLVQAGGSLRLSCAASGSTLAKYTMGWYRQAPGKERELVATISRRGGSTYYADSVKGRFTISRDNAKNTVYLQMNSLKPEDTAVYYCNAVGHTSIRRALDILDYWGQGTQVTVSS | high polyreactivity
5 | QVQLVESGGGLDQAGGSLRLSCAASGSIFDANAMVWYRQAPGKERELVAAITSSGGITYYADSVKGRFTISRDNAKNTVYLHLNSLKPADTAVYYCAAEYGYIDYSYLYWYDYWGQGTQVTVSS | high polyreactivity
6 | QVQLVESGGGLVQAGGSLRLSCAASGSTFWTNAMGWYRQAPGKERELVATITYSTGTYADSVKGRFTISRDNAKNTVYLQMNSLKPEDTAVYYCAADFWYRTVYGYFGYVYWGQGTQVTVSS | low polyreactivity
7 | KVQLVESGGGLVQAGGSIRLSFAASGLIFLQYCMGWYRQAPGKERELVAAITTRGGRTYYADSVKGRFTISRDNPKNTVYLQMNSLKPEDTAVYYCAADSEQDNLRYYRWVWYYYWGQGPQVTVSS | low polyreactivity
8 | QVQLVESGGGLVQAGGSLRLSCAASGSTFYANAMGWYRQAPGKERELVATINRRGNKYYADSVKGRFTISRDHAKNTVYLQMNSLKPEDTAVYYCAADAWVGWHDEYDYWGQGTQVTVSS | low polyreactivity
9 | QVQLVESGGGLVQAGGSLRLSCAASGRIFVVYVMGWYRQATGKEREFVAAITWGGGNTYYADSVKGRFTISRDNAKNTVYLQMNSLKPEDTAVYYCAAAPRKYVWMDYWGQGTQVTVSS | low polyreactivity
10 | QVQLVESGGGLVQAGGSLRLSCAASGGIFGGYAMGWYRQAPGKEGELVAVITSGGSTYYADSVKGRFTISRDNAKNTVYLQMNSLKPEDTAVYYCAADGNSYSYSTYDYWGQGTQVTLSS | low polyreactivity
11 | QVQLVESGGGLVQAGGSLRLSCAASGITFRSYAMGWYRQAPGKERELVATISWSGGITYYADSVKGRFTISRDNAKNTVYLQMNSLKPEDTAFYYCAKASQSWGRVDYYYWGLGTQVTVSS | low polyreactivity
12 | QVQLVESGGGLVQSGGSLRLSCAASGSTSGTNAMGWYRQAPGKERELVAGISYRGGSTYYADSVKGRFTISRDNAKNTVYLHMNSLKPEDTEVYYCAASRNISYWGQGTQVTVSS | high polyreactivity
13 | QVQLVESGGGLVQAGGSLRLSCAASGINFNKYAMGWYRQAPGKEREFVAAITYRGGSTYYADSVKGRFTISRDNAKNTVYFQMNSLKPEDTAVYYCAARRITTYYYWGQGTQVTVSS | high polyreactivity
14 | QVQLVESGGGLVQAGGSLRLSCAASGSIYIYYAMGWYRQAPVKERELVADITFSAGSNTYYADSVKGRFTISRDNAKNTVYLQMNSLKPEDTAVYYCNADRGFFGSITEYDYWGQGTQVTVSS | low polyreactivity
15 | QVQLVESGGGLVQAGGSLRLSCAASGSIFRRYTMGWYRQAPGKERELVAAISRVGNTNYADSVKGRFTISRDNAKNTVYLQMNSLKPEDTAVYYCAARAIGYRYTPGLNYWGQGTQVTVSS | high polyreactivity
16 | QGQLEESGGGLVQAGGSLRLSCAASGRTFAFYTMGWYRQAPGKERELVAAITRGGSTYYADSVKGRFTISRDNAKNTVYVQMNSLKPEDTAVYYCAASTRYYSQQFDYWGQGTQVTVSS | high polyreactivity
17 | QVQLVESGGGLVQAGGSLRLSCAASGRIFPKYAMGGDRQAPGTERPLVAAISSSGGSKYYADSVKGRFTISRDNAKNTVYFQMNSLKPEDTAVYYCNVDKATRDRYPGFDYWGQGTQVTVSS | high polyreactivity
18 | QVQLVESGGGLVQAGGSLRLSCAASGSIIYGYAMGWYRQAPGKERELVASISSGGSTNYADSVKGRFTISRDNAKNTVYLQMNSLKPEDTAVYYCAAYFQRSGFSFRLRGQGTQVTVSS | high polyreactivity
19 | QVQLVESGGGLVQAGGSLRLSCAASGRTFWKYAMGWYRQAPGKERELVAAITASGARTYYADSVKGRFTISRDNAKNTVYLQMNSLKPEDTAVYYCNAGSVSDRQMDYWGQGTEVTVSS | low polyreactivity
20 | QVQLVESGGGLVQAGGSLRLSCAASGSIFARYAMGWYRQAPGKERELVATITRGGSTNYADSVKGRFTISRDNAKNTVYLQMNSLKPDDTAVYYCARTSYGRLDYWGQGPQVTVSS | low polyreactivity
21 | QVQLVESGGGLVQAGGSLRLSCAASGSIFYYNMGWYRPAPGKERELVAAISGGGGSTFYADSVKGRFTISRDNAKNTVYLQMNSLKPEDTAVYYCAARATTRRKKRMDYWGQGTQVTVSS | high polyreactivity
22 | QVQLEETGGGLVQAGGSLRLTCAASVRTFRGNVMGWYREAPGKERELVAAINWTGSSTYYADSVKGRFTISRDNAKNSVYLQMNSLKPEDTAVYYCATRSGPHGGGLPRDYWGQGTQVTVSS | low polyreactivity

Row | Sequence | polyreactivity (PSR sort gate)
23 | QVQLVESGGGLVQAGGSLRLSCAASGFIFATYTMGWYRQAPGKERKLVAAITWRGGSTYYADSVKGRFTISRDNAKNSVYLQMNSLKPEDTAVYYCAAQDVYSYRYVEDDYWGQGTQVTVSS | low polyreactivity
24 | QVQLVESGGGLVQAGGSLRLSCAASGSIFERYAMGWYRQAPGKERELVAAISWRGGSTYYADSVKGRFTISRDNAKNTVYLQMNSLKPEDTAVYYCAAGARYVKQGYGYWGQGTQVTVSS | high polyreactivity
25 | QVQLVESGGGLVQAGGSLRLSCAGSGSTFGGYAMGWYRQAPGKEWELVAAINSGGSTYYADSVKGRFTISRDNAKNTVYLQMNSLKPEDTAVYYCNADSQVIRDYIFDYWGQGTQVTVSS | low polyreactivity
26 | QVQLVESGGGLVQAGGSLRLSCAASGLTFFRNAMGWYREATGKERELVATITSTSSTNYADSVKGRFTISRDNAKNSVYLQMNSLIPEDTAVYYCAARTVGRKAGFDYWGQGTQVTVSS | high polyreactivity
27 | QVQLVESGGGLVQAGGSLRLSCAASGSTFYVNAMGWYRQAPGTERELVAAIRSAGRTNYADSVKGRFTSSRDNAKNTVYLQMNSLKPEDTAVYYCAAEVPHWPYYGRLHDRDYWGQGTQVTVSS | low polyreactivity
28 | QVQLVESGGGLVQAGGSIRLSCSASGRIFNRNAMGWYRKAPGKERELVAAISSDTSTNYADSVKGRFTISRDNAKNNVYLQMNSLKPEDTAVYYCNADGYYDMDYWGQGTQVTVSS | low polyreactivity
29 | QVQLVETGGRLVQAGGSLRLSCAASGITLPKYAMGWYRPAPGKERELVAAISRSSGRTYYADSVKGRFTISRDNAKNTVYLQMNSLKPEDTAVYYCAASHGGYITRYNYWGQGTQVTVSS | high polyreactivity
30 | QVQLVESGGGLVQAGGSLRLSCAASGFTCKYYAMGWYRQAPGKERELVASINWSGGRTSYADSVKGRFTISRDNAKNTVYLQMNSLKREDTAVYYCARTPAGRGEYWGQGSQVTVSS | low polyreactivity
31 | QVQLVESGGGLDQAGGSLSLSTAASGFTFYVKAMGLYRQAPGKEREWVAAISSSGTRTYYADSVKGRFTISRDNAKNSVYFQMKCLKPEYTAVYFCAARGQAYSGDRMYYWGQGTQVTVSS | high polyreactivity
32 | QVQLVESGGGLFHAGGSLRLSCAASGIIFGGYTIGWYRQAPGKERELVAAISWSGVGTYYADSVKGRFTISRDNAKNTVYLQMNSLKPDDTAVYYCAAWAYYSDDDEYWGQGTQVTVSS | high polyreactivity
33 | QVQLVESGGGLVQAGGSLRLSCAASGLIIYYYAMGWYRQAPGKERELVAAITWTAGSTSYADSVKGRFTISRDNAKNTVYLQMNSLKPEDTAVYYCAADYRHDTFSNQYDYWGQGTQVTVSS | low polyreactivity
34 | QVQLEESGGGLVQAGASLRLSCDASGSIFKKYAMGWYRPAPGKEWELVPAITRGTYYADSVKGRFTISRDNAKNTVYLQMNSLKPEDTAVYYCNREFWGRGYYRVRGEYDYWGQGTQVTVSS | low polyreactivity
35 | QVQLVESGGGLVQAGGSLRLSCAASGSIFADYAMGWYRQAPGKERELVAAITGSGGRTYYADSVKGRFTISRDNAKNTVYLQMNSLKPEDTAVYYCAAYQVVWDPYTRYDYWGQGTQVTVSS | low polyreactivity
36 | QVQLVESGGGLVQAGGSLRLTCAASGGIFQFYDMGWYRQAPGKERELVAAITSSGGSTYADSVKGRFTISRDNAKYTVYLQMNSLKPEVTAVYYCAASLVWEYAPGWRFKYGYWGQGTQVTVSS | high polyreactivity
37 | QVQLVESGGGLVQAGGSLRLSCAASGGTIAPYAMGWYRQAPGKERELVATISYSGTSTNYADSVKGRFTISRDNAKNTVYLQMNSLKPEDTAVYYCAKRYHQYRWRGWLWGFDYWGQGTQVTVSS | high polyreactivity
38 | QVQLVESGGGLVQAAGSLRLSSAPSVSSFRNKAMGWYRQAPGKERELVASISSSGDSTYADSVKGRFTISRDNAKNTVSLQMNSLKPEDTAVYYCARDYLSPYAVDYWGQGTQVTVSS | low polyreactivity
39 | QVQLVESGGGLVQAGGSLRLSCAASGSILSYNTMGWYRHAPGKEREFVACITYSGSRTYYADSVKGRFTISRDKAKNTDYLQMNSLKPEDTAVYYCAKRNYYLLYWGQGTQVTVSS | high polyreactivity
40 | QVQLVESGGGLFQAGGSLRLSCAASGFIFPINAMGWYRQAPGKERELVAAITSGGRTNYADSVKGRFTISRDNAKNTVYLQMNSLKPEDTAVYYCNAVVFVLNVEYYPWLLNNYWGQGTQVTVSS | low polyreactivity
41 | QVLLVESGGGLVQAGGSLRLSCAASGFTFNRYDMVWYRQAPGTEREKVARITRGGSTKYADSVKGRFTISRDNAKNTVYLQMKSLKPEDTPVSYCAAGPVKRYVVQGNYWGQGTQVTVSS | high polyreactivity
42 | QVQLVESGGGLVQAGGSLRLSCAASGRTFHYNAMGWYRQAPGKERELVAAITRSGGSTYYADSLKGRFTISRVNAKNTVYLQMNSLKPEDTAVYYCAAGWRSVSVRYYGPSDYWGQGTQVTVSS | low polyreactivity
43 | QVQLVESGGGLVQAGGSLRLSCAASGSTGWYDRGWYRQAPGKERELVASISSGDSTNYADSVKGRFTISRDNAKNTVYLQMNSLKPEDTAVYYCAADFNVGFVWGDDYDYWGQGTQVTVSS | low polyreactivity

Source: the nanobody polyreactivity screen of Harvey et al. (2022)
